From the nanobody polyreactivity screen of Harvey et al. (2022)

Experiment: yeast display, Sf9 membrane polyspecificity reagent, FACS + sequencing; frameworks hold sequencing errors
In short: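 Using colony PCR, genes from sorted yeast display clones were amplified, then sequenced on MiSeq at 2 × 250 and filtered by CDR length. The clones had been stained with 10% biotinylated, detergent-solubilized Sf9 membrane reagent for 1 hour at 4 °C and sorted by FACS into low and high (top ~1%) gates on anti-HA and streptavidin fluorescence. Polyreactivity labels come from the gate of origin.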

Sequence	polyreactivity (PSR sort gate)
QVQLVESGGGLVQAGGSLRLSCAASGLIFLGYARGWYRQSPGKERELVASIRTGGSTSYADSVKGRFTISRDNAKNTVYLQMNSLKPEDTAVYYCAADRGRPNLPGDYWGQGTQVTVSS	low polyreactivity
QVQLVETGGGLVQAGGSLRLSCAASGTIFTNYTMGWYRQAPGKERELVASISWSGGRTYYADSVKGRFTISRDNAKNTVYLQMNSLKPEDTAVYYCAAVSRAPGLRYDYWGQGTQVTVSS	high polyreactivity
QVQLVDSGGGLVQAGGSLRLSCAASGIILVNNAMGWYRQAPGKEREFVAAIRYSAGSTYYADSVKGRFTISRDNAKTTVYLQMNSLKPEDTAVYYCNAVRYPTRGYYPYRYGYWGQGTQVNVSS	high polyreactivity
QVQHVESGRGLVQAGGSLRLSCAASGRIFQYYTMGRYRQAPGKERELVAAISRSGSSTYYADSVKGRFTISRDNAKNTVYLQMNSLKPEDTAVYYCAAVSEYYKGYDYWGQGTQVTVSS	high polyreactivity
QVQLVESGGGLVQAGGSLRLSCAASGSTFPLNVMGWYRQAPGKERELVAAISSAGSTNYADSVKGRFTISRDNAKNTVYLQMNSLKPEDTAVYYCNADVRSTWYWLQYTPIYDYWGQGTQVTVSS	low polyreactivity
QVQLVESGGGLVQAGGSLRLSCAASGSIIGVNAMGWYRQAPGKERELVAAISSTGGSTYYADSVKGRFTISRDNAKNTVYLQMNSLKPEDTAVYYCNTDYSKSIGDGYAGFDYWGQGTQVTVSS	low polyreactivity
QVQLVESGGGLVQAGGSLRLSCAASGRNFSTYAMGWYRQAPWKERELVAAINKIGGSTYYADSVKGRFTISRDNAKNTVYLQMNILKPEDTAVYYCAADAPYYPVRRYYYWGQGTQVTVSS	low polyreactivity
QVQLVESGGGLVQAGGSLSLSCAASGSIFGVNAMGWYRQAPGKERELVAAITLRSGSTYYADSVKGRFTISRDNAKNTVYIQMNSLKPEDTAVYYSATYSWGVDRPNYNYWGQGTQVTVSS	low polyreactivity
QVQLVESGGGLVQAGGSLRLSCAASGFIFLYNAMGWYRQAPGKERELVAAITSSGGTTYYADSVKGRFTISRDNAKNTVYLQMNSLKPEDTAVYYCAARYTGRNGGSTTPEYDYWGQGTQVTVSS	low polyreactivity
QVQLVESGGGLVQAGGSLRLSCAASGSIFLFYAMGWYRQAPGKERELVAAISYSGGRTYYADSVKGRFTISRDNAKNTVYLQMNSLNPEDTAVYYCAAVGYSSYPYRRFDYWGQGTQVTVSS	high polyreactivity
QVQLVESGGGLVQEGGSLCLSCAASGINFYYYTMGWYRQATGKERELVDAISGDDTHYADSVKGRFTISGDNAKKTVYLLMNSLKADHTAVYYCAAGYIYWDTVQSVYEYGYCGQGTQVTVSS	low polyreactivity
QVQLVESGGGLVHAGGSLRLSCAASARIFIAYMAWYRQAPGKERELVAAIDSGASTYYADSVKGRFTISRDNANNTVYLQMNSLKPEDTAVYYCAADVVYDYGGMDYWGQGTQVTVSS	low polyreactivity
QVQLVEAGGGLVQAGGSLRLSCAASGPIFPLYAKGWYRQAPGKERELVAAISSGGTTYYADSVKGRFTISRDNAKNTVYLQMNSLKQEDTAVYYCARRPAQRLGRFDYWGQGTQVTVSS	low polyreactivity
QVQLVESGGGLVQAGGSLRLSCAASGFTLEDYTMGWYRQAPGKERELVARITSGGSTNYADSVKGRFTISRDNAKNTVYLQMNSLKPEDTAVYYCNARYAWINMDYWGQGTQVTVSS	low polyreactivity
QVQLVESGGGLVQAGGSLRLSCAASGRTFVYYAMGWYRQAPGKERELVASISSGGGSTNYADSVKGRFTISRDNAKNTVYLQMNSLKPEDTAVYYCAVDTPRYRYYRTSYDYWGQGTQVTVSS	low polyreactivity
QVQLVESGGGLVQAGGSLRLSCDASGSTFLTNTMGWYRQAPGKERELVAAISSGDSTYYADSVKGRFTISRDNAKNTVYLQLNSLKPEVTAVYYCARDGGWRNVPRDYWGQGTQVTVSS	low polyreactivity
QVQLVESGGGLVQAGGSLRLSCAATGIIIDSNAMGWYRQAPGKERELVAAITSGGSTKYADSVKGRFTISRDNAKNTVYLQMNSLKPEDTAVYYCAAGGSYYRDDYWGQGTQVTVSS	low polyreactivity
QVQLVESGGGLVQAGGSLRLSCAASGSIFFWYTMGWYREAPGKERELVATITGSGSSTTYADSVKGRFTISRDNAKNTVYLQMNSLKPEDTAVYYCAAADIIDHSFPYDYWGQGTQVTVSS	low polyreactivity
QVQLVESGGGLVQAGGSLRLSCAASGGTFVHNAMGWYRQAPGKERELVAAISWSGGSTYYADSVKGRFTISRDNAKNTVYLQMNSLKPEDTAVYYCAADLPDYKDIFDSWGQGTQVTVSS	low polyreactivity
QVQLLESGGGIVQAGGSLRLSCAASGSIFWGYAMGWYRQAPGKERELVAAISSSGGNTYYADSVKGRFTISRDNAKNTVYLQMNSLQPEETAVYYCAATPEFYGGKITDVSSQYGYWGQGPQVTVSS	low polyreactivity
QDQLVESGGGLVQAGGSLRLSCAASGSIFAYYVMGWYRQAPGKERELVAAISKSGGSTYYADSVQGRFTISRDNAKNTVYVQRNSLKPEDPAVYYCAAPQRYPRFYYWGQGTQVTVSS	high polyreactivity

Sequence	polyreactivity (PSR sort gate)
QVQLVESGGGLVQAGGSLRLSCAASGRIFSPYAMGWYRQAPGKERELVAAINSIGGSTYYADSVKGRFTISRDNAKNTVYLQMNSLKPEDTAVYYCAVKWYRLGLIRWGGYWGQGTQVTVSS	high polyreactivity
QVQLVESAGGLVQAGGSLRLSCASSGFTFKANAMGWYRQAPGKERELVAAISRRGSSTYYADSVKGRFTISRDNAKNTVYLQMNSLKPEDTAVYYCNTKPRAGRTKLGYWGQGTQVTVSS	high polyreactivity
QVQLVESGGGLVQAGGSLRLSCAASGFTFGYYAMGWYRQAPGKERELVASISWRGGSTYYADSVKGRFTISRDNAKNTVYLQMNSLKPEDTAVYYCATKYTGPYYRTMNYWGQGTQVTVSS	high polyreactivity
QVQLVESGGGLVQAGGSLRLSCAASGTFFGYALGWYRQAPGKERELVAAITPGGSTYYADSVKGRFTISRDNAKNTVYLQMNSLKPEDTAVYYCARVYSRWSYRYDYWGQGTQVTVSS	low polyreactivity
QVQLVESGGGLVQAGGSLRLSCAASGSIFYNNAMGWYRQAPGKERELVAAISGSGDSTYYADSVKGRFTISRDNAKNSVYLQMNSLKPEDTAVYYCNATPYVLWWSDMDYWGQGTQVTVSS	high polyreactivity
QDQLVESGGGIVQAGGSLRLSCAASGSTFTWYAMGWYLQDPGKEREFVAAITRSGDSTYYADSVKGRFTISRDNAKNTVYLEMNSLKPEDTAVYYCAASNDYLRGWFDYWGQGTQVTVSS	low polyreactivity
QVQLVESGGGLVQAGGSLRLSCAASGSIFGRYVMGWYRQAPGKERELVAAITSVGITNYADSVKGRFTISRDNAKNTVYLQMNSLKPEDTAVYYCAKRYYRYGARSWYYPYDYWGQGTQVTVSS	high polyreactivity
QVQLVESGGGLVQAGGSLRLSCAASGRIITRYTMGWYRQAPGKERELVASITSSGSSTYYADSVKGRFTISRDNAKNTFYLQMNSLKPEDTAVYYCAARSRLRYLYDYWGQGTQVTVSS	high polyreactivity
QVQHVESGGGLVQAGGSLRLSCAASGRIFTYYTMGWYRQAPGKERELVAAISWSGGRTYYADSVKGRFTISRDNAKNTVYLQMNSLKPEDTAVYYCARLQDSRESPWRGYYWGQGTQVTVSS	high polyreactivity
QVQLVESGGGLVQAGGSLRLSCAASGRTFFVNAMGWYRQAPGKERELVAGISIGGRTSYADSVKGRFTISRDNAKNTVYLQMNSLKPEDTAVYYCATSYFPWSRKRYGYWGQGTQVTVSS	high polyreactivity
QVQLVESGGGLVQAGGSLRLSCAASGFIFYHNAMGWYRQAPGKERELVAVISSGGSTYYADSVKGRFTISRDNAKNTVYLQMNSLKPEDTAVYYCAALYYGWSGSYAMDYWGQGTQVTVSS	high polyreactivity
QVQLVESGGGLVQAGGSLRLSCAASGRTFVGYAMGWYRQAPGKERELVAAISGGGRTNYADSVKGRFTISRDNAKNTVYLQMISLKPEDTAVYYFAARLVKYFRPYDYWGQGTQVTVSS	high polyreactivity
QVQLVESGGGLVQAGGSLRLSCADSGRTFRIYAMGWYRQAPGKERELVARITKRAGSTYYADSVKGRFTISRDNAKNTVYLQMNSLKPEDTAVYYCAATHYQWRGRYGYWRQGTQVTVSS	high polyreactivity
QVQLVESGGGLVQAGGSLRLSCAASGRIFRKYAMGWYRQAPGKERELVAAINWSGGSTYYADSVKGRFTISRDNAKNTVYLQMNSLKPEDTAVYYCAARSPKAERDYWGQGTQVTVSS	high polyreactivity
QVQLVESGGGLGQAGGSLRLSCAASGRTFTYNAMGWYRQAPGKERELVAAISYSGGRTYYADSVKGRFTISRDNAKNTVYLQMNSLKPEDTAVYYCARAYLGYYGRTYEYWGQGTQVTVSS	high polyreactivity
QVQLVESGGGLVQAGGSLRLSCAASGGTFRKYTMGWYRQAPGKERELVAAISSTGSSTYYADSVKGRFTISRDNAKNTVYLQMNSLKPEDTAVYYCAADVFSGYYWPVLEDHWGQGTQVTVSS	high polyreactivity
QVQLVESGGGLVQAGGSLRLSCAASGSISTVYAMGWYRQAPGKEMELVAAISWSGGSTYYADSVKGRFTISRDNAKNTVYLQMNSLKPEDTAVYYCAAEGYLVGSRWGPRYGDYWGQGTQVTVSS	high polyreactivity
QVQLVESGGGLVQAGGSLRLTCAASGSTFVWYGMGWYRQAPGKEREFVAAISTSGGRTYYADSVKGRFTISRDNAKNTVYLQMNSLKPEDTAVYYCATRPYFTYRWYDYWGQGTQVTVSS	high polyreactivity
QVQLVESGGGLVQAGGSLRLSCAASGRIFDTNAMGWYRQAPGKERELVAAITYSGGSTYYADSVKGRFTISRDNAKNTVYLQMNSLKPEDTAVYYCAAGPYDPRYDYWGQGTQVTVSS	high polyreactivity
QVQLVESGGGLVQAGGRLRLSCAASGRIFSYNAMGWYRQAPGKERELVAGITSGGRTYYADSVKGRFTISRDNAKNTVYLLIYSLKPEDTAVYYCGARYVPARSGYYYWGQGTQVTVSS	high polyreactivity
